Reference: the supplement of paper PMC9732359
± gives the uncertainty stated by the source.

Test: protein stability index of a GFP-peptide fusion (yeast GPS) (PSI 1-4); higher = more stable; sorted into four equal gates, so the index is relative within each strain
Method in brief: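 Sequencing reads from sorted gates were used to score each peptide. The library consisted of tiled 17-residue yeast protein peptides fused downstream of GFP on a Cherry-expressing plasmid, pooled and carried in yeast. Mid-log cultures in leucine-free medium were split into four equal gates by GFP/Cherry ratio, and each gate's plasmids were PCR-amplified and Illumina-sequenced. The protein stability index adds up, over all gates, the read frequency multiplied by the gate number.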

Sequence | protein stability index (doa10∆) | protein stability index (pdr5∆) | protein stability index (san1∆) | protein stability index (ubr1∆)
MAPNTSRKQKVIKTLTV [RPL22B] | 2.1 ± 0.18 | 2 ± 0.088 | 2.6 ± 0.13 | 1.97 ± 0.093
NTKEEFAAAPNDTSSGT [SNF5] | 2.97 ± 0.067 | 3.06 ± 0.062 | 2.96 ± 0.055 | 2.9 ± 0.062
GVDLKLKYSKRRSLKKQ [CSN12] | 2.89 ± 0.074 | 2.75 ± 0.069 | 3.27 ± 0.15 | 3.05 ± 0.036
GNRNSSSVFLPSRKDCM [BRR2] | 3.18 ± 0.086 | 3.16 ± 0.071 | 3.2 ± 0.057 | 3.22 ± 0.074
VLRTALVHDGLARGLRE [RPS12] | 2.57 ± 0.17 | 2.79 ± 0.16 | 2.77 ± 0.096 | 3.25 ± 0.1
LMTFNAETKSYDSRGVG [YLR335W/NUP2] | 2.19 ± 0.063 | 2.65 ± 0.059 | 2.74 ± 0.054 | 2.71 ± 0.048
AETDYVDPKRLAMVIIK [DSN1] | 3.13 ± 0.066 | 3.35 ± 0.074 | 3.03 ± 0.056 | 3.53 ± 0.06
QDQYKEGIKVVDIDDPD [SNF2] | 2.97 ± 0.16 | 2.45 ± 0.086 | 2.13 ± 0.071 | 2.54 ± 0.073
GAKVKTMRRQKLTILQE [RET1] | 1.43 ± 0.088 | 2.35 ± 0.06 | 2.05 ± 0.14 | 2.22 ± 0.086
RRHRNPDLQFIVISLKN [SMC1] | 1.86 ± 0.041 | 1.83 ± 0.039 | 1.73 ± 0.058 | 2.13 ± 0.027
EHRIRVFFDKRIGQEVD [RPS6A] | 3.25 ± 0.14 | 3.09 ± 0.14 | 2.6 ± 0.29 | 2.87 ± 0.2
TKNGTPNPNNMKTVQSP [GAL11] | 2.96 ± 0.086 | 2.92 ± 0.081 | 2.77 ± 0.062 | 2.91 ± 0.066
KPALKVSKEGLYQLVDI [YMR129W/POM152] | 3.18 ± 0.13 | 3.1 ± 0.12 | 3.14 ± 0.074 | 3.02 ± 0.082
MSKITSSQVREHVKELL [RPL1A] | 1.59 ± 0.092 | 2.09 ± 0.065 | 2.45 ± 0.093 | 1.99 ± 0.051
DIFGANAASGSNSNVTN [YOR098C/NUP1] | 2.11 ± 0.064 | 1.65 ± 0.054 | 1.64 ± 0.11 | 2.63 ± 0.079
RWEMEAFGEFSLEGCVE [FAS2] | 3.28 ± 0.17 | 3.36 ± 0.16 | 2.98 ± 0.095 | 2.83 ± 0.14
EARAEAINLMGVKNNLL [RPO31] | 3.35 ± 0.22 | 1.96 ± 0.15 | 1.84 ± 0.23 | 1.66 ± 0.24
ATVPSAPYRKQIISNAH [YAR002W/NUP60] | 2.34 ± 0.062 | 2.41 ± 0.069 | 1.88 ± 0.093 | 2.37 ± 0.06
NGFMESAIVNEDGLLEG [SOH1] | – | – | 2.86 ± 0.23 | –
LVHGIFGAKMSRTLILS [SIN4] | 1.8 ± 0.063 | 1.41 ± 0.044 | 1.36 ± 0.088 | 1.65 ± 0.039
TITDLIEQGIPKHSYLS [SIR4] | 3.05 ± 0.059 | 3.16 ± 0.06 | 3.21 ± 0.073 | 3.17 ± 0.043
QGNYVTEDIREGDQAEV [YMR129W/POM152] | 3.49 ± 0.086 | 3.32 ± 0.073 | 3.3 ± 0.066 | 3.39 ± 0.083
NFALTTLIDLVKHSPGA [ECM29] | 1.61 ± 0.11 | 1.79 ± 0.071 | 1.49 ± 0.15 | 2.13 ± 0.062
RRRKGISTGGFMSNDGP [SNU114] | 1.46 ± 0.086 | 1.47 ± 0.1 | 1.18 ± 0.14 | 1.33 ± 0.063
SFLFSAIPLQQVLSQSA [SWI1] | 1.58 ± 0.054 | 1.43 ± 0.064 | 1.28 ± 0.091 | 1.39 ± 0.034

Sequence | protein stability index (doa10∆) | protein stability index (pdr5∆) | protein stability index (san1∆) | protein stability index (ubr1∆)
EILGINLANEQPVLEKP [SIR4] | 3 ± 0.068 | 3.2 ± 0.052 | 3.21 ± 0.045 | 3.11 ± 0.046
LDGELDFDDFLKLGLVE [RET1] | 3.36 ± 0.16 | 3.08 ± 0.12 | 2.81 ± 0.13 | 2.56 ± 0.17
IQIDEETENSESIASSN [MCD1] | 2.4 ± 0.071 | 2.73 ± 0.072 | 2.5 ± 0.082 | 2.76 ± 0.051
ELLDFLTSNLSNYSRTM [YJL039C/NUP192] | 2.35 ± 0.076 | 2.54 ± 0.079 | 2.82 ± 0.054 | 2.59 ± 0.085
RVVRPKSLDAETEAEED [RPO21] | 2.25 ± 0.19 | 1.21 ± 0.13 | 1.21 ± 0.19 | 1.31 ± 0.29
KRKYDEITHPPSTTDDE [SWI3] | 3.13 ± 0.11 | 3.23 ± 0.12 | 3.18 ± 0.071 | 3.29 ± 0.082
AHAQHQPSQQPQQAQQQ [GAL11] | 2.92 ± 0.041 | 3.03 ± 0.037 | 3 ± 0.032 | 2.98 ± 0.031
EFIAHRLGLIPLQSMDI [RPB3] | 2.69 ± 0.13 | 2.04 ± 0.17 | 1.92 ± 0.23 | –
NARIYNTEGSVVYEDSL [SNF2] | 3.1 ± 0.084 | 3.25 ± 0.085 | 2.92 ± 0.11 | 3.25 ± 0.13
LSRGDDEVTIRRTVGLK [SMC3] | 3.17 ± 0.096 | 2.73 ± 0.083 | 2.77 ± 0.078 | 2.55 ± 0.063
VKDLGQGLKLAKKHKLN [SMC3] | 3.12 ± 0.11 | 2.92 ± 0.13 | 2.83 ± 0.097 | 2.81 ± 0.068
TLIKKKQDEKKSSELEL [SMC2] | 3.24 ± 0.076 | 3.37 ± 0.071 | 3.29 ± 0.047 | 3.05 ± 0.046
QGRRLGESIMSEEPTDF [MCD1] | 3.21 ± 0.11 | 3.36 ± 0.13 | 3.32 ± 0.069 | 3.23 ± 0.092
TANDQYSSILGNSFNKS [YCG1] | 3.13 ± 0.069 | 3.18 ± 0.067 | 3.31 ± 0.038 | 3.46 ± 0.058
PIPVQGEIEIKPNEEEE [RPN13] | 2.45 ± 0.081 | 2.59 ± 0.067 | 2.58 ± 0.15 | 2.67 ± 0.1
LAKPVFHVGFIAKIKKV [RPO21] | 1.21 ± 0.053 | 2.15 ± 0.067 | 1.78 ± 0.073 | 2.02 ± 0.06
VPYVVTHDGRTIRYPDP [RPS4A] | 3.08 ± 0.1 | 3.16 ± 0.17 | – | 3.38 ± 0.19
YKMVQEQLSKQRDLYKR [SMC2] | 3.1 ± 0.097 | 3.03 ± 0.087 | 2.45 ± 0.16 | 3.09 ± 0.063
LTVENKLQFETDRLSTT [SMC1] | 3.24 ± 0.077 | 3.05 ± 0.05 | 2.84 ± 0.047 | 2.94 ± 0.044
ENRKKDESDSENDIEIK [YLR335W/NUP2] | 2.68 ± 0.1 | 2.23 ± 0.15 | 1.65 ± 0.12 | 2.73 ± 0.082
EYWAQRKKKFVLDVDPK [ISW2] | 3.08 ± 0.094 | 2.48 ± 0.26 | 3.03 ± 0.21 | 3.28 ± 0.21
NWRKQKGIDSVVRRRFR [RPL32] | 2.56 ± 0.1 | 2.66 ± 0.17 | – | 2.28 ± 0.18
SASPHLAPNMQLNGNET [SNF2] | 3.23 ± 0.041 | 2.96 ± 0.043 | 3.1 ± 0.025 | 3.256 ± 0.032
ISLHENKLSGILADEMG [ISW2] | 2.81 ± 0.085 | 2.16 ± 0.069 | 2.71 ± 0.084 | 2.44 ± 0.1
SLDLNNLELGGLNMDFL [PGD1] | 3.24 ± 0.098 | 3.19 ± 0.099 | 3.37 ± 0.082 | 2.74 ± 0.11
